These results are taken from patent US20070059727A1.

The target in the test is microtubules assembled from fluorescein-modified bovine brain tubulin (α-/β-tubulin heterodimers) (bovine). Put plainly: cell-based or functional assay.

The substance “Glutathione S-Transferase (GST)-tagged γ-Tubulin fusion protein (from UniProt P23258 1-451)” returned an average MT length after 5 min of polymerization (MTs on GST-γ-tubulin-functionalized gold pads against MTs grown in solution) of 1.68 micron and an average MT length after 10 min of polymerization (MTs on GST-γ-tubulin-functionalized gold pads against MTs grown in solution) of 3.47 micron.
